Experimental data from PMC8891275, “Crosstalk between CRISPR-Cas9 and the human transcriptome”.

Experiments:
[1] = target: T1, SpCas9-NLS (CAS9PROT, Sigma-Aldrich) (UniProt Q99ZW2 1-1368); assay: EMSA; apparent Kd, high nanomolar; 20 nM RNA, Cas9 0-1000 nM; no gRNA; 20 mM Tris-HCl pH 7.4, 150 mM KCl, 5 mM MgCl2, 5 mM EDTA, 1 mM DTT, 0.1% BSA, 5% glycerol, 0.01% Tween 20, 50 ug/mL heparin, 200 U/mL Superase-In; 30 min at room temperature; gel at 4 C; settings: protein: commercial; tags: NLS; label: 5' IRDye 800CW; GU-loop upstream of 5-nt stem
[2] = target: T1, SpCas9-NLS (CAS9PROT, Sigma-Aldrich); assay: competition; outcompetes 20 nM labeled CDIP1 RNA; Cas9 640 nM; 1:1 to 1:32 to Cas9; 20 mM Tris-HCl pH 7.4, 150 mM KCl, 5 mM MgCl2, 5 mM EDTA, 1 mM DTT, 0.1% BSA, 5% glycerol, 0.01% Tween 20, 50 ug/mL heparin, 200 U/mL Superase-In; 30 min at room temperature; gel at 4 C; settings: protein: commercial; tags: NLS; guide RNA hairpins
[3] = target: T1, SpCas9-NLS (CAS9PROT, Sigma-Aldrich); assay: competition; does not outcompete 20 nM labeled CDIP1 RNA; Cas9 640 nM; 1:1 to 1:32 to Cas9; 20 mM Tris-HCl pH 7.4, 150 mM KCl, 5 mM MgCl2, 5 mM EDTA, 1 mM DTT, 0.1% BSA, 5% glycerol, 0.01% Tween 20, 50 ug/mL heparin, 200 U/mL Superase-In; 30 min at room temperature; gel at 4 C; settings: protein: commercial; tags: NLS

T1 sequence (Q99ZW2 whole entry): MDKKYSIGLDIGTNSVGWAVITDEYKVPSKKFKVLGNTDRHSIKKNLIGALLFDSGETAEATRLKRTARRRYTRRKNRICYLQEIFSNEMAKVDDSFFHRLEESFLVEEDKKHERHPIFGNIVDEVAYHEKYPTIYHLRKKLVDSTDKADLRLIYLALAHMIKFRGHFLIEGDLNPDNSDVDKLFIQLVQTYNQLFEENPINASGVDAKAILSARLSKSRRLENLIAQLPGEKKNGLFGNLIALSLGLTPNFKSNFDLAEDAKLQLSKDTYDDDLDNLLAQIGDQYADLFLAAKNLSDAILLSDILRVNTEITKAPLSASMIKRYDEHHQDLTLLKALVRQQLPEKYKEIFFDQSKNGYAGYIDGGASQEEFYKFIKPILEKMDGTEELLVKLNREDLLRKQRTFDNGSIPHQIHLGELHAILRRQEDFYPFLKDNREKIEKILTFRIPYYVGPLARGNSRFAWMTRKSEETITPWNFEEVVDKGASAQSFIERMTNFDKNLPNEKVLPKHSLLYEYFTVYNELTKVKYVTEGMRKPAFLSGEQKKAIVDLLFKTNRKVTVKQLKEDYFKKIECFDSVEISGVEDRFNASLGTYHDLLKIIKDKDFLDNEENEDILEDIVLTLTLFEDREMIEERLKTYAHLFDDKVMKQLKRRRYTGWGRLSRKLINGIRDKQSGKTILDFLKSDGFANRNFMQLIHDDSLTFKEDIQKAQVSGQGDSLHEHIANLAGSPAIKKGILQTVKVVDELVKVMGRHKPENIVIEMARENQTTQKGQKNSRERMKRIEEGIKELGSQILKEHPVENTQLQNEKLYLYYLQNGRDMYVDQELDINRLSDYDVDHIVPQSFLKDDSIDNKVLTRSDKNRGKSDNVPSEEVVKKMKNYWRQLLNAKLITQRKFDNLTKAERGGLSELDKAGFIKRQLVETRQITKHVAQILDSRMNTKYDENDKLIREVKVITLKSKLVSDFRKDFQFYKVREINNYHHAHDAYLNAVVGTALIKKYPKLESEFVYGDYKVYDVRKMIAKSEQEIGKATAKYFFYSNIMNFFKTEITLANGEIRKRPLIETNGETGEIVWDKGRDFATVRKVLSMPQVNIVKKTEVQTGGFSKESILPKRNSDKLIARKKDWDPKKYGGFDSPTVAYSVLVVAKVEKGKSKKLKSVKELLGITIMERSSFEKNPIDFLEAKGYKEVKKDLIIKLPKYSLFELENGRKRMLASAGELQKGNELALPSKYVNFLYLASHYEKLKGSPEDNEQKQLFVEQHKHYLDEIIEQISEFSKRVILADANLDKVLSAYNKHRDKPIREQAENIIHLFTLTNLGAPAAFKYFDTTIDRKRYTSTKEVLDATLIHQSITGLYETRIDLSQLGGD

B1: CDIP1 5' UTR RNA (Fig. 2) (structured_RNA)
RNA: UACCCGCCUCCUUGUGACAGAAGUGCGACUGCCAGCUGCCGAGGCGUUCGGUCCUGCUGUUGCGGCCGCUGCCCCAGGGCUGCGGGGACGGUGAGUCGACUGGA
**Q.** With B1 as the binder, how does the Kd [1] read?
**A.** > 100 nM

B2: Cas9 gRNA (structured_RNA)
RNA: AUUAAUCGGUGGGAGUAUUCGUUUAAGAGCUAUGCUGGAAACAGCAUAGCAAGUUUAAAUAAGGCUAGUCCGUUAUCAACUUGAAAAAGUGGCACCGAGUCGGUGCU
**Q.** Does B2 bind [2]?
**A.** binds

B3: non-specific (N.S.) RNA, unlabeled (ssRNA)
RNA: CUAUGCGGCAUCAGAGCAGAUUGUACUGAGAGUGCACCAUAUGCGGUGUGAAAUACCGCACAGAUGCGUAAGGAGAAAAUACCGCAUCAGGCGCCAUUCGCCAUUCAGGCUGCGCAACUGUUGG
**Q.** Does B3 bind [3]?
**A.** no binding
